Measurements: article PMC10765591, “Structural analysis and molecular substrate recognition properties of Arabidopsis thaliana ornithine transcarbamylase, the molecular target of phaseolotoxin produced by Pseudomonas syringae” (Frontiers in Plant Science, 2023)

Biological target: Arabidopsis thaliana ornithine transcarbamylase (Arabidopsis thaliana) (UniProt O50039)
Assay: crystal structure; AtOTC co-crystallised with 20 mM ornithine or carbamoyl phosphate; HEPES 0.1 M pH 6.0, 0.3 M Li2SO4, PEG 3350, about 20°C; three subunits around a non-crystallographic three-fold axis

Arabidopsis thaliana ornithine transcarbamylase, sequence (O50039 53-375): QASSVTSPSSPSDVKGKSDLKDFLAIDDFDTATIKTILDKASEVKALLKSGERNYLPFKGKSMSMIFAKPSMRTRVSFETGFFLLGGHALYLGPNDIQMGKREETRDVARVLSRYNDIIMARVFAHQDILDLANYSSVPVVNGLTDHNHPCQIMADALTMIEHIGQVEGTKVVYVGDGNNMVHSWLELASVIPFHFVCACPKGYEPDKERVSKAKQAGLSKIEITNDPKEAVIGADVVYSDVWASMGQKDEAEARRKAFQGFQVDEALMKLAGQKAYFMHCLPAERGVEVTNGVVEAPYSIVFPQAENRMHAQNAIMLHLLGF

stoichiometry N: 3
Substance: Arabidopsis thaliana ornithine transcarbamylase (from UniProt O50039 53-375) (enzyme)
